The target in experiment [1] is activin Type II receptors (ActRIIA and ActRIIB) on A204/CAGAx12-Luc cells. Nature of the experiment: cell-based or functional assay.
Experiment [2] addresses Activin A (R&D Systems, #338-AC) (human) (UniProt P08476). Nature of the experiment: SPR blocking: 5 nM Activin A + 15 nM binder over hActRIIB-hFc (Control 4) surface.
The target is the same in experiment [3]. Nature of the experiment: SPR blocking: 5 nM Activin A + 30 nM binder over hActRIIB-hFc (Control 4) surface.
Experiment [4] shares this target. Nature of the experiment: SPR blocking: 5 nM Activin A + 60 nM binder over hActRIIB-hFc (Control 4) surface.
Experiment [5] shares this target. Nature of the experiment: SPR blocking: 5 nM Activin A + 0.00 nM binder over hActRIIB-hFc (Control 4) surface.
The target is the same in experiment [6]. Nature of the experiment: SPR blocking: 5 nM Activin A + 0.94 nM binder over hActRIIB-hFc (Control 4) surface.
The target is the same in experiment [7]. As to the kind of experiment: SPR blocking: 5 nM Activin A + 1.88 nM binder over hActRIIB-hFc (Control 4) surface.
The target is the same in experiment [8]. As to the kind of experiment: SPR blocking: 5 nM Activin A + 3.75 nM binder over hActRIIB-hFc (Control 4) surface.
For experiment [9] the target is unchanged. Nature of the experiment: SPR blocking: 5 nM Activin A + 7.50 nM binder over hActRIIB-hFc (Control 4) surface.
Experiment [10] addresses Activin A (homodimer of two inhibin betaA subunits) (human) (UniProt P08476). As to the kind of experiment: cell-based or functional assay.

Activin A (homodimer of two inhibin betaA subunits) (human), sequence (P08476 311-426 limits assumed): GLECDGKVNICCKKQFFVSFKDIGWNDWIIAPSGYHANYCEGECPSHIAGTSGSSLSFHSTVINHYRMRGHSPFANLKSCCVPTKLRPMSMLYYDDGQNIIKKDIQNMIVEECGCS
Activin A (R&D Systems, #338-AC) (human), sequence (P08476 311-426 limits assumed): as above

As to “Activin AB (heterodimer of one betaA subunit and one betaB subunit) (from UniProt P08476 311-426; P09529 293-407) (ligand)”, the activation of the A204/CAGAx12-Luc cell line (Smad 2/3-luciferase reporter), EC50 in experiment [1] was found to be 19 pM.

“Activin AC (heterodimer of one betaA subunit and one betaC subunit) (from UniProt P55103 237-352) (ligand)”: the activation of the A204/CAGAx12-Luc cell line (Smad 2/3-luciferase reporter), EC50 in [1] was determined as 4400 pM.

Take “Control 3 (murine anti-Activin A monoclonal antibody from R&D Systems, catalog number MAB3381)”: the % bound RU w/ no inhibitor in experiment [2] was determined as 2%; in [3] it was 1%; in experiment [4], 2%; in experiment [5], 100%; in experiment [6], 135%; in experiment [7], 133%. Also, the % bound RU w/ no inhibitor in experiment [8] is 120%; in experiment [9] it was 33%.

On to “GDF11 (from UniProt O95390 299-407) (ligand)”, for which, in [1], the activation of A204/CAGAx12-Luc cells, EC50 was determined as 84 pM and the activation of A204/CAGAx12-Luc cells, EC50 (separate day) is 166 pM.

Turning to isotype control antibody, the % bound RU w/ no inhibitor in experiment [2] came out at 110%; in experiment [3], 111%; in experiment [4], 115%; in experiment [5], 100%; in [6] it was 105%; in experiment [7], 105%. Also, the figures for the % bound RU w/ no inhibitor in experiment [8] and in [9] were 104% and 107%, respectively.

Take isotype control antibody (Example 7): in experiment [10], the action potential duration, cardiomyocytes chronically treated with 1 nM activin A plus isotype control worked out at 0.56 s; the calcium flux falling time, cardiomyocytes treated with activin A plus isotype control is 0.75 s; the calcium flux rising time, cardiomyocytes treated with activin A plus isotype control worked out at 0.36 s; the field potential amplitude, cardiomyocytes chronically exposed to activin A plus 25 nM isotype control worked out at 42.9 µV. Further, in experiment [10], the field potential downstroke velocity, cardiomyocytes exposed to activin A plus 25 nM isotype control is 0.019 V/sec and the peak calcium handling amplitude, cardiomyocytes treated with activin A plus isotype control is 484 RFU.
